Measured values from article PMC2941195.

Substrate: C=CC(C)(C)c1[nH]c2cc(O)ccc2c1C[C@@H]1NC(=O)[C@@H]2CCCN2C1=O
Test: Michaelis-Menten kinetics, HPLC product detection
Format: biochemical, Aspergillus sp. MF297-2
Conditions: normal prenylation at C-7 with DMAPP, 5 mM MgCl2, 50 mM Tris-Cl pH 7.5

B1: NotC (Aspergillus sp. MF297-2) (protein)
chain: MAIEEKSTSAEPGPYDALSRFSSLTGEDDRKWWEHTGPVLEKVMRDSGYELQSQYIYLYFVQQHLIPYLGKFPTRGQDDHRWQSNLTPYKVPYELSWNVSHKVVRISWDPVCDASGTENDAFNKKAIHDCTRQLAELDSTVILDRYRLLHKDLVITDEEEQQLLRRDVLPKSGRGQHNLAVDFQEGGITLKVYFYPYMKFLATGTPIEELFFSAIEKLRIADIDEAVGMLKCFLSPKSDDGKPSVDEKVFPSLLACDLCDPSKSRIKYYVIDKWVKWERIANLWTIGGRRLEDPYCAKGLALLKELWDLLAIPEGDRGDIWPNLVLGQPPTHLMTTIANYTLSPASRFPEPQVYLTTFGLNDMAIIDALTAFYERVGFTDMAKSYKKNVQSYYPNLDLNQTNWVHEAVSFSYRNSKPYLSVYYSPF
Km: 2.64 ± 0.33 µM
kcat: 1.01 ± 0.0317 s⁻¹
